Data on 2 molecules can be found in article PMC8553545.

This data set deals with ZBTB7A ZF1-4 (370-500) pXC2222 (Homo sapiens, UniProt O95365 370-500). Briefly: X-ray crystallography.
Chain of ZBTB7A ZF1-4 (370-500) pXC2222 (O95365 370-500): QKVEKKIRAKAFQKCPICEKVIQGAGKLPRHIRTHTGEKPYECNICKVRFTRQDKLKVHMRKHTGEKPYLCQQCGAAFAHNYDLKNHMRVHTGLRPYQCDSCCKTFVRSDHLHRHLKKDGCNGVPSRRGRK

B1: 7N5T oligo (dsDNA)
DNA 1: AGGCCCCTTCCCCAC
DNA 2: TGTGGGGAAGGGGCC
Take B1: the binding result is “binds”.

B2: 7N5S oligo (dsDNA)
DNA 1: GGGGCCCCTTCCCCA
DNA 2: CTGGGGAAGGGGCCC
With B2, the binding result is recorded as “binds”.
